Changes are numbered by the printed parent chain. Square brackets hold non-standard residues; d marks the D form. Ends that are not written are not given here. Hyp = O=C(O)[C@@H]1C[C@@H](O)CN1
Legend:
Assay in all cases: ITC; 0.5–1 mM peptide titrated into 10–40 μM ecdTDR; 25°C; 10 mM sodium citrate, 100 mM NaCl, pH 5.5; fitted to one set of binding sites; MicroCal Auto-iTC200
Settings in all cases: both partners purified
ecdTDR W353A mutant = molecular target: T1, ecdTDR W353A mutant (Arabidopsis thaliana, UniProt Q9FII5 30-642, W353A)
T1 construct: TDR/PXY of A. thaliana, extracellular domain, residues 30-642; source: High Five insect cells (baculovirus), secreted, purified as the wild type (Ni-NTA, size-exclusion chromatography)
T1 sequence (looked up): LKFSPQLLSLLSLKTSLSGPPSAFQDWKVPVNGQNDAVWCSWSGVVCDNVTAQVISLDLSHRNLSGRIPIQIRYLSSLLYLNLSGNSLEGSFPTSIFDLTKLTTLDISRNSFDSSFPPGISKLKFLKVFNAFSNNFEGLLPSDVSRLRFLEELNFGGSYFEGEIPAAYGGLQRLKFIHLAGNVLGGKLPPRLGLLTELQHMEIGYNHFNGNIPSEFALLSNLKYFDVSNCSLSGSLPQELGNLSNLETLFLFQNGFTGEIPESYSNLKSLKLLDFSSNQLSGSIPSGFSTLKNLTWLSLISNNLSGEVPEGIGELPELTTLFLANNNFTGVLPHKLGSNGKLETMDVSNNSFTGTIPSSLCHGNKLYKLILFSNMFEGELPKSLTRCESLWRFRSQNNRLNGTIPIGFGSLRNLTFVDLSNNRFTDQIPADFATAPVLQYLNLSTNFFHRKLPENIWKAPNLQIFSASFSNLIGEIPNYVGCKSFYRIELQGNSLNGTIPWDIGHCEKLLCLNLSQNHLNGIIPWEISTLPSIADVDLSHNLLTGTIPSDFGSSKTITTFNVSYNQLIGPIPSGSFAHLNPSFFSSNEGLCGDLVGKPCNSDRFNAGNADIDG

ecdTDR R421A mutant = molecular target: T2, ecdTDR R421A mutant (Arabidopsis thaliana, UniProt Q9FII5 30-642, single alanine substitution of R421)
T2 construct: TDR/PXY of A. thaliana, extracellular domain, residues 30-642; also called single alanine substitution of R421; source: High Five insect cells (baculovirus), secreted, purified as the wild type (Ni-NTA, size-exclusion chromatography)
T2 sequence (looked up): T1 sequence (looked up) with A324W, R392A

[1] = molecular target: T3, ecdTDR F281 alanine mutant (Arabidopsis thaliana, UniProt Q9FII5 30-642, alanine substitution of F281)
T3 construct: TDR/PXY of A. thaliana, extracellular domain, residues 30-642; The text says only 'mutational analyses' of F281; source: High Five insect cells (baculovirus), secreted, purified as the wild type (Ni-NTA, size-exclusion chromatography)
T3 sequence (looked up): T1 sequence (looked up) with F252A, A324W

B1: Tracheary Element Differentiation Inhibitory Factor (TDIF) peptide (peptide)
peptide: HEV[Hyp]SG[Hyp]NPISN
notes: TDIF, the 12-residue CLE peptide processed from CLE41 and CLE44 of A. thaliana; printed as HEV(Hyp)SG(Hyp)NPISN; numbers count on: the 12-residue peptide; CLE44 encodes the same peptide; also called wild type TDIF; wtTDIF; source: synthetic peptide (peptide 2.0)
fold lower binding than wild-type ecdTDR (ecdTDR W353A mutant): 8.4 fold
binding result (ecdTDR R421A mutant): binds
binding result [1]: binds
